Assays:
[1] = test system: Akt-Ser473 phosphorylation; assay: Western blot of Akt-Ser473 phosphorylation in TWEAK-treated glioma cells; type: cell-based, Human
Description: (§1) Human astrocytoma cell lines T98G, U87, U118, SNB19 (American Type Culture Collection) and SF767 (University of California at San Francisco) were maintained in Dulbecco's modified Eagle's medium (DMEM)+10% heat inactivated fetal bovine serum (FBS) in a 37° C., 5% CO2 atmosphere. In all assays treated with TWEAK, cells were cultured in reduced serum (0.5% FBS) for 16 h prior to stimulation with recombinant TWEAK at 100 ng/ml in DMEM+0.1% BSA for the indicated times.
(§2) Immunoblotting and protein determination experiments were performed as described previously (See Reference 11). In some experiments, TWEAK (100 ng/ml) was preincubated with 2.5 μg/ml soluble Fn14-Fc decoy receptor or control Fc protein at 37° C. for 15 min before adding it to cells (See Reference 26). Also, in some cases, cells were pretreated with the PI3K inhibitor LY294002 (10 μM) for 10 min prior to TWEAK addition. For immunoprecipitation, cells were lysed on ice for 10 min in a buffer containing 10 mM Tris-HCl, pH 7.4, 0.5% Nonidet P-40, 150 mM NaCl, 1 mM phenylmethylsulfonyl fluoride, 1 mM EDTA, 2 mM sodium vanadate, 10 μg/ml aprotinin, and 10 μg/ml leupeptin (Sigma). […] Samples were then resuspended in 2×SDS sample buffer and boiled in the presence of 2-mercaptoethanol (Sigma), separated by SDS-PAGE, transferred to nitrocellulose for 1 h at 4° C., and proteins were detected as described previously (See Reference 27). […]
Referring now to FIG. 1, T98G and SF767 glioma cells were treated with TWEAK and then harvested at the indicated times. Protein lysates were analyzed by Western blotting using antibodies to Akt Ser-473, total Akt, and α-tubulin. […] Total cell lysates were collected after 10 min of TWEAK treatment and analyzed for phosphorylated Akt-473, total Akt, and α-tubulin. […] Cells were treated with TWEAK for 10 minutes and protein lysates were analyzed for phosphorylated Akt-473, total Akt, Rac1 and α-tubulin. […]

[2] = test system: T98G and SF767 glioma cells; assay: Apoptotic assay (nuclear morphology of DAPI stained cells); type: cell-based, Human
Description: as §1
Apoptotic cells were evaluated by nuclear morphology of DAPI stained cells as described previously (See Reference 11). Briefly, cells with condensed, fragmented chromatin were manually scored as apoptotic cells. At least five fields (total of 1000 cells) were evaluated, and data reported as apoptotic cells/total cells×100. Verification of apoptotic cells was conducted by co-immunofluorescence staining using a monoclonal antibody against activated cleaved caspase 3. At least 1000 cells per treatment were evaluated for condensed chromatin and activated caspase 3 (See Reference 11).
TWEAK stimulation of glioma cell survival depends on Akt2 function. SiRNA specific for Akt1 (FIG. 12) and Akt2 (FIG. 13) suppress expression of Akt1 and Ak2 protein in both. T98G and SF767 glioma cells. […] After 72 hours, protein lysates were collected and analyzed by Western blotting for Akt1, Akt2 and α-tubulin. […] Cells with condensed, fragmented chromatin were manually scored as apoptotic cells. At least 10 fields (total of 1000 cells) were evaluated and data reported as apoptotic cells/total cells×100. […]
(§3) In FIGS. 18 and 19, TWEAK-induced BAD phosphorylation on serine 136 is dependent upon Akt2 function. […] Cellular lysates were collected and analyzed for phosphorylated BAD Ser-136 and total BAD by ELISA. […] After 72 hours protein lysates were collected and analyzed by Western blotting for BAD and α-tubulin. […] Cells with condensed, fragmented chromatin were manually scored as apoptotic cells. At least 10 fields (total of 1000 cells) were evaluated and data reported as apoptotic cells/total cells×100. […]

Akt2 = assay: Immunoprecipitation with isoform-specific antibody, immunoblot for phospho Akt-473; type: cell-based, Human; settings: T98G cells; TWEAK 10 min
Description: as §2
(§4) The protein expression of Akt1 and Akt2 across five different glioma cell lines was assessed. […]
(§5) Akt1 and Akt2 are expressed in glioma cell lines and are phosphorylated in TWEAK stimulated cells. Referring now to FIG. 10: T98G, SNB19, SF767, U87, and U118 cell lysates were analyzed for endogenous levels of Akt1 and Akt2 by Western blotting. To monitor gel loading, α-tubulin protein levels were also analyzed. […]

Akt1 = assay: as above; type: cell-based, Human; settings: T98G cells; TWEAK 10 min
Description: as §2, §4, §5

[3] = test system: BAD (Ser 136) phosphorylation; assay: PhosphoBAD (Ser 136) sandwich ELISA; parameters: species or system Human; settings: cell-based ELISA; glioma cells
Description: Phosphorylation levels of BAD (Ser 136) were determined using a cell-based ELISA. Glioma cells were transfected with siRNA oligonucleotides against AKT1, AKT2, or non-mammalian GL2 luciferase control siRNA and incubated overnight. The cells were cultured overnight in DMEM with 0.5% FBS prior to TWEAK or control PBS addition in DMEM with 0.1% BSA for 15 min. Total cellular lysates were collected according to manufacturer's instructions utilizing the PathScan Sandwich ELISA kit (Cell Signaling). Each sample (100 μg total protein) was diluted 1:1 in sample buffer for a final volume of 200 μL prior to addition to the designated microstrip wells previously coated by the manufacturer with a BAD rabbit monoclonal capture antibody. The microstrips were then sealed and incubated overnight at 4° C. on a plate shaker. […] Stop solution was omitted and absorbance read at 600 nm (See Reference 29).
as §3

B1: TWEAK: recombinant TWEAK, TNF superfamily ligand of the Fn14 receptor, used at 100 ng/ml (protein)
chain: SAPKGRKTRARRAIAAHYEVHPRPGQDGAQAGVDGTVSGWEEARINSSSPLRYNRQIGEFIVTRAGLYYLYCQVHFDEGKAVYLKLDLLVDGVLALRCLEEFSATAASSLGPQLRLCQVSGLLALRPGSSLRIRTLPWAHLKAAPFLTYFGLFQVH
With B1 the “Akt-Ser473 phosphorylation after TWEAK treatment (immunoblot of whole cellular lysates)” value ([1]; TWEAK 100 ng/ml, T98G and SF767 glioma cells) was “induction of Akt-Ser473 phosphorylation”, the “duration of TWEAK treatment after which Akt-Ser473 phosphorylation diminished” value ([1]; TWEAK treatment, T98G and SF767) was “more than 1 hour” and the “time after which phosphorylation of Akt-Ser473 was detected” value ([1]; TWEAK treatment, both T98G and SF767 cell lines) was 5 min. For the same molecule, the “effect of TWEAK pretreatment on apoptosis by cytotoxic or chemotherapeutic agents in cells with BAD expression suppressed” value ([2]; BAD siRNA transfected glioma cells) was “still protected glioma cells from apoptosis”, the “effect of TWEAK pretreatment on TMZ induced cell death” value ([2]; TWEAK 100 ng/ml 2 hours before TMZ 200 μM) was “suppressed TMZ induced cell death” and the “effect of TWEAK pretreatment on cytotoxic therapy-induced apoptosis” value ([2]; TWEAK 100 ng/ml 2 hours before TRAIL or camptothecin, control siRNA cells) was “abrogated cytotoxic therapy-induced apoptosis”. For the same molecule, the “induction of phosphorylation of Akt2 following TWEAK treatment” value (Akt2) was “two-fold induction”, the “induction of phosphorylation of Akt1 following TWEAK treatment” value (Akt1) was “two-fold induction” and the “amount of phosphorylated BAD-Ser136 upon TWEAK stimulation” value [3] was “increased approximately two-fold”. For the same molecule, the “amount of total BAD upon TWEAK stimulation” value [3] was “did not change significantly”.
